Experimental data from article PMC9308218, “FBXL17/spastin axis as a novel therapeutic target of hereditary spastic paraplegia” (Cell & Bioscience, 2022).

Biological target: T1, USP20 (Ubiquitin Specific Peptidase 20) on the HuProt protein microarray (human, UniProt Q9Y2K6 1-914)
T1 construct: ubiquitin specific peptidase 20, human, spot on the HuProt array of full-length recombinant human proteins; source: bought: HuProt protein microarray (CDI Labs), recombinant
Assay: peptide or protein array; HuProt human protein microarray (over 20,000 full-length recombinant human proteins); 3 μg biotinylated His-SPAST on the array for 8 h at 4 °C; detected with streptavidin-Alexa-Fluor 635
Conditions: both partners purified

T1 sequence (Q9Y2K6 whole entry): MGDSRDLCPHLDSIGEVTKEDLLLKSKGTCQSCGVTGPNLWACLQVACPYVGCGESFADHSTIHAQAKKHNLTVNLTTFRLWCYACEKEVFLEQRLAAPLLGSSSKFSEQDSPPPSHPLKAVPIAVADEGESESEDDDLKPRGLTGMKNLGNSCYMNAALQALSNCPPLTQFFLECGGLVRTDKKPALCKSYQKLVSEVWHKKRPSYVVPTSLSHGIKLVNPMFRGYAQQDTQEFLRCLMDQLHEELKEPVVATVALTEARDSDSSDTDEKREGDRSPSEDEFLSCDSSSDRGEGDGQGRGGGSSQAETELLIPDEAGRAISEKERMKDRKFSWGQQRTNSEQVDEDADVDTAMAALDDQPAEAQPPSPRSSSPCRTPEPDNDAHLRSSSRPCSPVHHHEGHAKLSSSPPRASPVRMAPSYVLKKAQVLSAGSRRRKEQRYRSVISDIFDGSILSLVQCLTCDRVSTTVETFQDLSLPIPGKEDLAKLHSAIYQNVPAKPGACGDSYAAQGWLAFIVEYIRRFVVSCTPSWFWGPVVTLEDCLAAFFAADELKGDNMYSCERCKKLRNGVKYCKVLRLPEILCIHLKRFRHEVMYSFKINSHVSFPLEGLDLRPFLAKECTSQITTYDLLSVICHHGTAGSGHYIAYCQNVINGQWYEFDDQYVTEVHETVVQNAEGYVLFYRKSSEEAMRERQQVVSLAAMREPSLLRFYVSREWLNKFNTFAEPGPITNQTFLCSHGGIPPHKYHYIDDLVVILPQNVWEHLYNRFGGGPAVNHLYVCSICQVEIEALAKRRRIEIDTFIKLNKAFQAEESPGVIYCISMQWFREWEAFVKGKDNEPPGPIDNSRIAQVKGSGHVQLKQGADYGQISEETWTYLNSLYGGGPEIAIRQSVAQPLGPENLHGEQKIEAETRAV

B1: biotinylated His-SPAST-M1 (natural protein, human, UniProt Q9UBP0 1-616, looked up)
chain: MNSPGGRGKKKGSGGASNPVPPRPPPPCLAPAPPAAGPAPPPESPHKRNLYYFSYPLFVGFALLRLVAFHLGLLFVWLCQRFSRALMAAKRSSGAAPAPASASAPAPVPGGEAERVRVFHKQAFEYISIALRIDEDEKAGQKEQAVEWYKKGIEELEKGIAVIVTGQGEQCERARRLQAKMMTNLVMAKDRLQLLEKMQPVLPFSKSQTDVYNDSTNLACRNGHLQSESGAVPKRKDPLTHTSNSLPRSKTVMKTGSAGLSGHHRAPSYSGLSMVSGVKQGSGPAPTTHKGTPKTNRTNKPSTPTTATRKKKDLKNFRNVDSNLANLIMNEIVDNGTAVKFDDIAGQDLAKQALQEIVILPSLRPELFTGLRAPARGLLLFGPPGNGKTMLAKAVAAESNATFFNISAASLTSKYVGEGEKLVRALFAVARELQPSIIFIDEVDSLLCERREGEHDASRRLKTEFLIEFDGVQSAGDDRVLVMGATNRPQELDEAVLRRFIKRVYVSLPNEETRLLLLKNLLCKQGSPLTQKELAQLARMTDGYSGSDLTALAKDAALGPIRELKPEQVKNMSASEMRNIRLSDFTESLKKIKRSVSPQTLEAYIRWNKDFGDTTV
modifications: biotin (biotinylated, site not stated)
notes: The methods call it His-SPAST; the results call it His-SPAST-M1; also called His-tagged SPAST protein; source: E. coli BL21 (pET28a-His-SPAST), purified (Ni-NTA)
B1: binds.
